± gives the standard deviation of the averaged measurements.
The sequences below were run on ATP (assay: switch fluorescence ratio, 500 uM ATP over buffer (Cy3 cluster intensity, sum of 5 cycles each) (fold (ratio)); higher = stronger signal-on switching upon ATP binding; sequences stand for … in TCGTCGGCAGCGTCAGATGTGTATAAGAGACAGTTTTTTTTTTTTTTTTTTTTTTTTT…TC). Conditions: aptamer strand: ATP DNA aptamer (quencher-CACCTGGGGGAGTATTGCGGAGGAAGG + anchor), 100 nM annealed; ATP concentration: 500 uM.
Summary of the method: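 Cy3-labelled switching-strand clusters on a modified Illumina MiSeq flow-cell were annealed to 100 nM quencher-labelled ATP aptamer, imaged in selection buffer, then imaged after 15 min with 500 uM ATP at 22 °C. Five buffer/ATP cycles ran, with NaOH stripping and re-annealing between them. The fluorescence ratio is summed target-cycle over summed buffer-cycle Cy3 intensity per cluster, averaged per switch-domain sequence. Clusters outside 100-1000 RFU were excluded.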
GAAGGTGAGG showed a switch fluorescence ratio of 1.01 ± 0.019. In the case of GAAGGTGCGA, the switch fluorescence ratio is reported as 1.15 ± 0.052. For GAAGGTGTTG, the switch fluorescence ratio was 1.036 ± 0.0084. With GAAGGTTATA the switch fluorescence ratio was 1 ± 0.047. Sequence GAAGGTTCAT has a switch fluorescence ratio of 0.961 ± 0.022. GAAGGTTGAG gave a switch fluorescence ratio of 1.025 ± 0.009. GAAGGTTTGG was tested, and the switch fluorescence ratio was 0.981 ± 0.03. Work on GAAGTAAAAA yielded a switch fluorescence ratio of 1.01 ± 0.026. GAAGTAAGGA was tested, and the switch fluorescence ratio was 1.01 ± 0.074. With GAAGTAATAG the switch fluorescence ratio was 4.39 ± 0.18. For GAAGTAGAAA, the switch fluorescence ratio was 0.9958 ± 0.0016. For GAAGTAGGGG, the switch fluorescence ratio was 0.977 ± 0.033. GAAGTAGTTA gave a switch fluorescence ratio of 1.006 ± 0.0082. GAAGTCCATG showed a switch fluorescence ratio of 1.01 ± 0.014. With GAAGTGAGCG the switch fluorescence ratio was 1.028 ± 0.0063. GAAGTGTTGG was tested, and the switch fluorescence ratio was 1.004 ± 0.0049. In the case of GAAGTTAGGG, the switch fluorescence ratio is reported as 0.981 ± 0.032. For GAAGTTCGGC, the switch fluorescence ratio was 1.006 ± 0.0056. GAAGTTGCGA showed a switch fluorescence ratio of 0.9835 ± 0.0091. Work on GAAGTTTTGG yielded a switch fluorescence ratio of 0.996 ± 0.028. In the case of GAAGTTTTGT, the switch fluorescence ratio is reported as 1.016 ± 0.0088. Work on GAATACGGTT yielded a switch fluorescence ratio of 1.26 ± 0.44. GAATAGCATA showed a switch fluorescence ratio of 1.05 ± 0.018. GAATAGGGGA gave a switch fluorescence ratio of 1.02 ± 0.022. GAATATACCG gave a switch fluorescence ratio of 1.03 ± 0.042. For GAATATACTG, the switch fluorescence ratio was 1.05 ± 0.029. For GAATATATTT, the switch fluorescence ratio was 0.993 ± 0.019. GAATCACAGC showed a switch fluorescence ratio of 1.02 ± 0.033. GAATCGGCGT showed a switch fluorescence ratio of 0.991 ± 0.058. For GAATCGTAGG, the switch fluorescence ratio was 0.986 ± 0.016. Sequence GAATCTAGTG has a switch fluorescence ratio of 1.019 ± 0.0039. For GAATCTTAGG, the switch fluorescence ratio was 1.03 ± 0.024. GAATGATGGG showed a switch fluorescence ratio of 0.987 ± 0.024. With GAATGCCGGG the switch fluorescence ratio was 1.03 ± 0.054. GAATGCCTGT showed a switch fluorescence ratio of 1.033 ± 0.0065. GAATGGCACA showed a switch fluorescence ratio of 0.998 ± 0.016. GAATGGGGAA gave a switch fluorescence ratio of 1.02 ± 0.021. With GAATGGGGCT the switch fluorescence ratio was 0.987 ± 0.037. With GAATGGGGGA the switch fluorescence ratio was 1.02 ± 0.019. GAATGGGTCG showed a switch fluorescence ratio of 0.989 ± 0.033. Work on GAATGGGTTG yielded a switch fluorescence ratio of 1.01 ± 0.028. GAATGTAGCA was tested, and the switch fluorescence ratio was 1.03 ± 0.011. Sequence GAATGTAGGG has a switch fluorescence ratio of 0.967 ± 0.046. Sequence GAATGTCCGT has a switch fluorescence ratio of 0.992 ± 0.015. With GAATGTGCAT the switch fluorescence ratio was 1.05 ± 0.047. GAATGTGGGG was tested, and the switch fluorescence ratio was 0.982 ± 0.019. In the case of GAATGTTCGG, the switch fluorescence ratio is reported as 0.999 ± 0.051. In the case of GAATGTTCTT, the switch fluorescence ratio is reported as 1.0298 ± 6.1e-05. GAATTAAACG was tested, and the switch fluorescence ratio was 1.02 ± 0.024. Sequence GAATTAAATG has a switch fluorescence ratio of 1.037 ± 0.0019. GAATTAGGTG gave a switch fluorescence ratio of 1.21 ± 0.029. Work on GAATTATATT yielded a switch fluorescence ratio of 0.988 ± 0.021. Work on GAATTCAGGG yielded a switch fluorescence ratio of 0.99 ± 0.014. GAATTCAGTG was tested, and the switch fluorescence ratio was 0.9953 ± 0.0096. GAATTGAGAA was tested, and the switch fluorescence ratio was 0.972 ± 0.035. GAATTGGAAG was tested, and the switch fluorescence ratio was 0.968 ± 0.025. With GAATTGTATT the switch fluorescence ratio was 0.993 ± 0.06. GAATTTAGCA gave a switch fluorescence ratio of 1.02 ± 0.031. Work on GAATTTGAGT yielded a switch fluorescence ratio of 0.9741 ± 0.0089. GAATTTGTTG showed a switch fluorescence ratio of 1.001 ± 0.0063. With GAATTTTCGC the switch fluorescence ratio was 0.995 ± 0.029. In the case of GAATTTTGGG, the switch fluorescence ratio is reported as 1 ± 0.032. GACAACGTA gave a switch fluorescence ratio of 0.9967 ± 0.0095. GACAATTTCT was tested, and the switch fluorescence ratio was 1.02 ± 0.072. GACACACCCG gave a switch fluorescence ratio of 1.13 ± 0.046. In the case of GACACCATCC, the switch fluorescence ratio is reported as 1.55 ± 0.18. With GACACGAGGT the switch fluorescence ratio was 1.013 ± 0.0084. GACACGGGGA was tested, and the switch fluorescence ratio was 1.01 ± 0.041. With GACAGACGGG the switch fluorescence ratio was 1.13 ± 0.049. GACAGAGGTG showed a switch fluorescence ratio of 1.03 ± 0.031. GACAGCAGGG gave a switch fluorescence ratio of 1.03 ± 0.025. For GACAGGGGGA, the switch fluorescence ratio was 1.035 ± 0.0072. Sequence GACAGGTGAG has a switch fluorescence ratio of 1.15 ± 0.058. GACAGTCTCA showed a switch fluorescence ratio of 1.02 ± 0.021. GACAGTGGTA showed a switch fluorescence ratio of 0.973 ± 0.013. GACAGTTTGT gave a switch fluorescence ratio of 1.01 ± 0.033. For GACATAAATG, the switch fluorescence ratio was 1.03 ± 0.12. GACATAGACC was tested, and the switch fluorescence ratio was 1.048 ± 0.0075. Work on GACATTTTGC yielded a switch fluorescence ratio of 1.05 ± 0.028. With GACCAAAGGG the switch fluorescence ratio was 1.03 ± 0.058. GACCAAATTT gave a switch fluorescence ratio of 1.02 ± 0.064. GACCACAGCG showed a switch fluorescence ratio of 1.02 ± 0.029. Work on GACCAGGTTA yielded a switch fluorescence ratio of 1.181 ± 0.0052. GACCATGGCA showed a switch fluorescence ratio of 1.01 ± 0.045. Sequence GACCCTGATC has a switch fluorescence ratio of 1.17 ± 0.058. GACCGATTTT was tested, and the switch fluorescence ratio was 0.989 ± 0.015. In the case of GACCGGGTAA, the switch fluorescence ratio is reported as 1.02 ± 0.033. GACCGTTGGA gave a switch fluorescence ratio of 0.987 ± 0.037. In the case of GACCGTTTGA, the switch fluorescence ratio is reported as 1.03 ± 0.03. GACCTAAGGT showed a switch fluorescence ratio of 0.988 ± 0.035. GACCTCACAT gave a switch fluorescence ratio of 1.18 ± 0.022. For GACCTGTAAT, the switch fluorescence ratio was 1.025 ± 0.0013. GACCTGTTTT showed a switch fluorescence ratio of 0.987 ± 0.063. GACCTTGATT showed a switch fluorescence ratio of 1.03 ± 0.029. GACCTTGTGC gave a switch fluorescence ratio of 1.03 ± 0.042. In the case of GACGAATGGG, the switch fluorescence ratio is reported as 0.985 ± 0.015. GACGACGTTA gave a switch fluorescence ratio of 1.55 ± 0.026. With GACGAGATAG the switch fluorescence ratio was 1.17 ± 0.076. GACGAGCGGG was tested, and the switch fluorescence ratio was 1 ± 0.025. GACGAGGG showed a switch fluorescence ratio of 1.03 ± 0.038.
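Also: ATP exposure 15 min at 22 °C before imaging.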
